Consider two molecules from article PMC7475177, “[…] RESPONSE FACTOR39–MYB8 complex regulates low-temperature-induced lignification of loquat fruit”.

In this data set the target is EjERF39 (Eriobotrya japonica cv. Luoyangqing …, UniProt A0A482LZG5 1-253). Nature of the data set: EMSA; not given in the material; EMSA as described by Ge et al. (2017). The settings on record: protein: recombinant; tags: GST (pGEX-4T-1); label: 3' biotin. (In EMSA bound probe runs differently from free probe, usually more slowly.)
Chain of EjERF39 (A0A482LZG5 entry or part of it): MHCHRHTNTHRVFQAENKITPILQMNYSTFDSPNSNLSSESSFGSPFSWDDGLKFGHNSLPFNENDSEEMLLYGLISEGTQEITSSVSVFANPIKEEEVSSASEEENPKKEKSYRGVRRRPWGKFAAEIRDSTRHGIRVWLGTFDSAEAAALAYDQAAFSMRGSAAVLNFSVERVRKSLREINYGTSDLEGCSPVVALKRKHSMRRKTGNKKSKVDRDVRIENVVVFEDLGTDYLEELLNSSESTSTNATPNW

B1: Ej4CL1 promoter DRE2 probe (dsDNA)
DNA 1: GTTCACAAGACAATCTGGCCGACCTCTTCACAAAATCAGT
DNA 2: ACTGATTTTGTGAAGAGGTCGGCCAGATTGTCTTGTGAAC
For B1, the binding result is reported as “binds”.

B2: Ej4CL1 promoter DRE1 probe (dsDNA)
DNA 1: TCGCCTTGTTGGTTATGCCGACGCAGGATACTTGTCTG
DNA 2: CAGACAAGTATCCTGCGTCGGCATAACCAACAAGGCGA
Turning to B2, the binding result is “no binding”.
